Test results taken from the DeepSol protein solubility set.

Experiment: soluble on expression in E. coli; label from the status in PepcDB or PDB records
In the case of “MGSDKIHHHHHHMLVNAYFIKLDSCQLPPRDLAVSVFLNLSKFNMPLTMPHLLELFVDSYFIEKKKRLRQCLQEPLDCGPVFHFSEPWEGLLSGYCTVLEDPLDGYFKLYYRGLSDGNLECSDGEVTCLALSHNGVEWFRPNLGLHKWLNRKSTNIILANNTPDSHNFTPFLDSSPTTLSHQRYKALAGVAPSGLNAYFSADGINWTNPYSKPVLTTGMFDSQNVAFWSSSEQKYVCFMRTWTGEGFSGIRTISRSTSTDFSSWTVPRRMSFGRIPLEHLYTNQTQPYPRAQQIYIGLAARFMPERQVITTEEALELSVDPSYYRDCSDVVLITSRGGNRYHRAVRQAFLKPGIGLENWVSRTNFPALGFIHTKPDEISFYMNKNYAQPNAYLSRFSFPLDRLGYLEASDSYGELITKSIPISSQDDLHLNLSTSAAGSCFVALLDENDATVSQFDMSSCLELIGNELSKPVRWLSSNGVSLRIGDSGLSSVKLHIRLLDARLFAFSLCSTDR”, the “soluble on expression in E. coli” value is reported as “not soluble”. For “MGSDKIHHHHHHMDNLIITPNYVTEFNCVGPACEDSCCKNWTVYFDKKSYKHTISNPAFADLAKIAFVEIKESKENWASIKLDEQGACPFLTQEELCKIHQVGGEAALSYTCKTYPKKDTLVGKDKYQSLSLSCPEAARLVLFDPNAFQFQSHNGGNKKPAKPSPVWLEKSYQYSLDLLINANLDWELALLAIGLLIKTAEDASQYQIPIEELDKRHDQLKRFAESGLMAQQFEKTPYASQLQANLFVTIHSELCKINPRSGKARFGELNLAIEQACNEDNHYSIDLINQAWNQVAQPALKENPDVFERYILYYLFHNHFPGPVTQTPSQSFILLAIDCFMIRCYLSAMALKNNGINQREIILCFQVYQVIRQHRSSFVARLEELVEECGLNSISAVMTLLKTN”, the “soluble on expression in E. coli” value was “not soluble”. With “MAHHHHHHMDKDKDKSKNTPLLYQDTMNDLGDGLQNMDTLRLNRNGNTGNGNKNKTNGSKGVKGEYEKKKETNGHDDYVKESLNRMLESHIDQYFKGLDYYKNNPKCKIDPKIHLHGSEEIENYIVKEKIFVTTYFQYIDVYENAINVDEDLEKEEIVYVEVPKYVTKYKPKIVTNIIEKTIEIPSGEEIKQPKYNTVNVPYVIPNIVENEILVVLKKIIQPEIEITNEELEIEVEKYIPRLVPVNVYVPRYFGISAKAKGEPEESVRYVDLTQDQIDELMKELNPHLNELKVFNETQLKRMDEYMRESQMQARAHNFEPPQPQLITYDESGHCQSYDYSEFHRFKETCIKELTH” the “soluble on expression in E. coli” value was “not soluble”. With “DKMDGAPSRVLHIRKLPGEVTETEVIALGLPFGKVTNILMLKGKNQAFLELATEEAAITMVNYYSAVTPHLRNQPIYIQYSNHKELKT” the “soluble on expression in E. coli” value was “soluble”. For “MAHHHHHHMEAKFLKLRQEREEQRRHRSKKTGAITLQRQQYEAEAELLEAEVMQLLQEGNVTESQQRIDALRTLVQDTSNSISLTAHEMAKANVILARLQQRVDEKCSGAAPKKFKFSSRLKAKPTSDAEPATPSFSPTGTSDTNEATATATVPIAGTVSSTNGFGNVYGPSTGTDLFISHSKGVFINGCADCAIYCLPIAGSAFLSNCTNCRVYVACHQLRLKGCTNLDLYVWCASTPIIEECDAMRFGPYRCWVGLLSSCTEDGKTYATHAEWVSRVGEIEDTARTEQNYVKVDDFQWVKKRASPHWCVLAREEERASTTVFGPATLPSSSTAHSTVAADH”, the “soluble on expression in E. coli” value was “not soluble”. With “MASGDLVHYVITVMLHEDTLTEINELNNYLTRDGFLLTMTDDEGNIHELGTNTFGLISTQSEEEIRELVSGLTQSATGKDPEITITTWEEWNSNRK” the “soluble on expression in E. coli” value was “not soluble”. In the case of “MGSDKIHHHHHHMSGFLAVKFPVKEASVADQQDFLGRFDAMSSKATATVIAHYSSSFTLASKLLSPKIRRDIEALYAMVRVADEVVDGAAAAAGCAPDAVAEILDNYERQVLLSLSVPFHTDPVIHAFGNTARKCGFEQAHIVAFFDSMRRDLSQTSYDPTQLDEYIYGSAEVIGLMCLKIFLQDSTASPQDRATMEHGARRLGAAFQKVNFLRDLAEDREGLGRSYLPVFTEEMRDEIVTDIREDLDAARLSIPLLPFGARTGVRAATDLYGCLVDNLESASLEDLKNGRIRVPSMKKASLATKAMWKEVFQK”, the “soluble on expression in E. coli” value is reported as “not soluble”. In the case of “MNNAKTAVTSRSVISLNSPIFLRQFYFEILNRLQVSSIIPKSKSEYVDAHMIRVSIEPQPTAFAYVFEYSTISTEPDNWNFAGASSKPEATFSILDPCRDYQFRVIIVIRSSNPAAVFDIIRPRPIPVQLPPFILTQPQISIEMPRVNNFNASGDLKLYVKWSLPYGYIDGDIYSYESPALYPIQCSTPEGEIPTPRIEIVKGGGRLAVWLPPSVLEARCRMWVEVRMLPRCVRLEPFNIQKNIEIDCSKNPSLDVCSKGR”, the “soluble on expression in E. coli” value is reported as “not soluble”. With “SGRTWREADINYTSGFRNSDRILYSSDWLIYKTTDHYQTFTKIRCAQVINTFDGVADYLQTYHKLPDNYITKSEAQALGWVASKGNLADVAPGKSIGGDIFSNREGKLPGK” the “soluble on expression in E. coli” value was “soluble”. In the case of “MALALTLREYEFSVLLLEARELPEKVDDPRPLALSYGSRLILQRLDIWKNLTQPAPITTIHISNRGHFGHAVLTPDDAGVPALGYVVNYHDLYHSMGRAIRGSNAVYQTNALVTAIRTDLSLAQVAYQQGSTTRQVRARLLVLADGGKLAEQIDGVRYHTYDYQQTAIVANVKVESPRPGTAFERFTLNGPLALLPSGEGYALVWTMPAAAAEKILKLDDRSFLLHLHEQFGDRMGEFTHVGPRSSFPLILKHASTITGHRAVLIGNAAQALHPVAGQGFNLGLRDAWELASEISRIPSGTPGEPGSTRMLAAYSRRRQSDKRISRLFTDSLVKLFTADLPLVQTCSGMGLAALDNLPPARRLIAHQMIFGTKGWFIGLEHHHHHH”, the “soluble on expression in E. coli” value is reported as “soluble”. For “QIGELKTTVGNSTIKVNDEVQVGSAFEAILGIEGLNGDTEVYSAEYLFEYNAEAFILNEITSFNDSLFVKSKEVEPGKVRILVASLGNEIEKDSDLVKVNLTPKISSELEVLGLTTALVGAGDGNTHDLELSSKEVKINEEAS”, the “soluble on expression in E. coli” value was “soluble”. In the case of “MGSDKIHHHHHHMKTKLILVGGFLGVGKTTLLGEAARRLSQTGRKVGLITNDQASELVDTVYLEQTGTEVSEVSGSCFCCNFPGFMEAIDHVNAHKPADIIIAEPVGSCTDLSATILQPLKEKFADKLSVAPLSVLVDPRQLTDILDGRTAGLHPSAAYILRKQLEEADLIVINKTDLLTPLAVEILKKRTAEEWPLASVYAISAKTGEGLAAWLHEAQQRSGAGTHLAEVDYDTYAEGEAVLGWLNATIELQSQGADWDTLGRNLLNSLRSRFGSLNAAIGHVKLLIATDQGYVIGNITGAKDSLDIRESAGTGRKAQLTLNARVQMEPDLLEEIVKEEIAKVQADKITATIAVLKCLKPGRPNPTYRYGTIVG”, the “soluble on expression in E. coli” value is reported as “not soluble”. For “GPLGSMASATLGSSSSSASPAVAELCQNTPETFLEASKLLLTYADNILRNPSDEKYRSIRIGNTAFSTRLLPVRGAVECLFEMGFEEGETHLIFPKKASVEQLQKIRDLIAIERSSRLDGSSKK”, the “soluble on expression in E. coli” value was “soluble”. In the case of “MNGAELIIQEINKEAERKIEYILNEARQQAEKIKEEARRNAEAKAEWIIRRAKTQAELEKQRIIANARLEVRRKRLAIQEEIISSVLEEVKRRLETMSEDEYFESVKALLKEAIKELNEKKVRVMSNEKTLGLIASRIEEIKSELGDVSIELGETVDTMGGVIVETEDGRIRIDNTFEARMERFEGEIRSTIAKVLFG”, the “soluble on expression in E. coli” value is reported as “soluble”. In the case of “MLSKRLLNFESFEVMDILALAQKLESEGKKVIHLEIGEPDFNTPKPIVDEGIKSLKEGKTHYTDSRGILELREKISELYKDKYKADIIPDNIIITGGSSLGLFFALSSIIDDGDEVLIQNPCYPCYKNFIRFLGAKPVFCDFTVESLEEALSDKTKAIIINSPSNPLGEVIDREIYEFAYENIPYIISDEIYNGLVYEGKCYSAIEFDENLEKTILINGFSKLYAMTGWRIGYVISNDEIIEAILKLQQNLFISAPTISQYAALKAFEKETEREINSMIKEFDRRRRLVLKYVKDFGWEVNNPIGAYYVFPNIGEDGREFAYKLLKEKFVALTPGIGFGSKGKNYIRISYANSYENIKEGLERIKEFLNK”, the “soluble on expression in E. coli” value is reported as “soluble”. With “MLDMELESFLSMEKQGDISDAFLSAVKAEMQQMVLYAAGLAVRNIEETNRLRQKAKELYFYYLERYSPLAEMYKGSEMSLHNAGTATLRGHKNLAGGKRIDIGLWDGSKEFFHEYCYLPDDVQIRLFISKIQLLHFVVGAITTPQYVEKVALLGKVVGSSRYLELLRSFIDLNDPSGKNYSRGLFFYDHKFDKLEEVGKEVGENLPEVIKRFFPDKWVLVDVWATWCSPCKKEFGYNKQLHAFLEEKGIAMLYCSVDEPENSDNWRNNLSAFGLTGYHYYITSKAEKELLKIPDFRMLIPRYLLFDNKGKLVHANLPRPSSEKALYEEIEKLMQGN” the “soluble on expression in E. coli” value was “not soluble”. With “MGSDKIHHHHHHMDTQAFKRSLHHSERYNRRGFGRANEVASNLEKAYQSSLIGSIRDNGYVLQHGRLQVKLAEAFGFCWGVERAVAMAYETRRHYPSERIWITNEIIHNPSVNEHLREMDVLFIHAEGGVKDFSCVNDGDVVILPAFGATVQEMELLHERGCHIIDTTCPWVSKVWHTVEKHKKQEFTSIIHGKVKHEETLATSSFAGTYLVVLDLDEAQLVADYILGQGDRAAFMKRFAKACSANFDPDQDLQRLGVANQTTMLKSETEEIGRLFERTMLRKYGPIELNKHFLSFNTICDATEERQQAMFSLVDEPLDLLVVIGGFNSSNTTHLQEIAISRGIRSFHIDTPERIGDNNSIQHKPLGEDLFIESNFLPAGSVSVGITSGASTPDRVVEHVIQKLIDLTSG” the “soluble on expression in E. coli” value was “not soluble”. With “MGSDKIHHHHHHMIQRRETFLNNVAEKLGRGRRTAGVKRPDYTVKPQFEVMKEHSSDQLVNVLSEQCTKIHTDVKQTKVDRLEQAIDNVLEEYSARNVITWNDPRFDQFGLTSFLQREQVEVWDHTEGERLVEKAEQADIGITFADYTLAESGTVVLLSGNGKGRSVSLLPTYYIAIIPKSTLVPRMSQVTRELHLKAASGERLPSCINFISGPSNSADIEMNLVVGVHGPIRACYIVVEDR” the “soluble on expression in E. coli” value was “not soluble”. With “MRLDLENLVETPSNEIAGFYEGLVEALPSLEGHYCSPGCRGGFLMRVREGTMMGHIVEHVALELQELAGMHVGFGRTRETATPGVYQVVIEYINEEAGRYAGRAAVRLCQSIVDRGRYPKAELEQDIQDLKDFSREASLGPSTEAIIKEAEKRGIPWMPLAARFLIQLGYGVNQKRMQATMTDNTGILGVELACDKEATKRILAANGVPVPRGTVINFLDDLEESIEYVGGYPIVIKPLDGNHGRGITIDIRSWDEAEAAYEAARQVSRSIIVERYYVGRDHRVLVVDGKVVAVAERVPAHVIGNGRSSIAELITETNQDPNRGEGHDNVLTKIELDRTSYQLLERQGYTLNSVPPKGTICYLRATANLSTGGSAVDRTDEIHPENVWLAQRVVRIIGLDIAGLDIVTTDISRPLRDVDGVIVEVNAAPGFRMHVAPSQGIPRNVAGAVMDMLFPNEKPSRIPILTVTGTNGKTTTTRLLAHIYRQTKKVVGYTTTDGTYIGDYLVEAGDNTGPQSAHVILQDPTVEVAVLESARGGILRSGLGFESANVGVVLNVAADHLGIGDIDTIEQLANLKSVVAEAVFPDGYAVLNADDHRVAAMSEKTKANIAYFTMNPDSDLVRKHIQKGGVAAVYENGYLSIVKGDWTHRIERAENIPLTMGGKAPFMIANALAASLAAFVQNVTIEQIRPGLRTFRASVSQTPGRMNLFNLGKYHALVDYAHNPASYEALGSFVRNWTTGQRIGVIGGPGDRRDEDFVTLGKLSADIFDYILVKEDDDTRGRLRGSASDLIIQGITQVKPNSRFESILDETQAINKALDMAPDGSLVVILPESVNRAIKLIKVRGVQEEIQPQNSTTTINDSQNGVAPSSVVNTLL” the “soluble on expression in E. coli” value was “not soluble”.
